Test results taken from PMC2212392.
Where two headings read alike, the source gives them in different places.

Key:
Test in all cases: SPR
[1] = target: soluble mCD2 comprising the extracellular region of mCD2 (mouse) (UniProt P08920)
[2] = target: soluble mCD2 comprising the extracellular region of mCD2 (mouse) (UniProt P08920); remark: listed apart in the source
[3] = target: soluble mCD2 comprising the extracellular region of mCD2 (mouse) (UniProt P08920); remark: listed apart in the source

Sequence of UniProt P08920 (P08920 23-203): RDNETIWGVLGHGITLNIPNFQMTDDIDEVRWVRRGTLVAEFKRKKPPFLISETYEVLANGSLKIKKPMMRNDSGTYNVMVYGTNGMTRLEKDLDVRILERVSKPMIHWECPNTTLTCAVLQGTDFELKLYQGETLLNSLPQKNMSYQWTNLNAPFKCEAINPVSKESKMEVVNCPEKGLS

Kd [1]: 49 µM
koff [2]: 22 s⁻¹
Kd [3]: 90 µM
koff [3]: > 20 s⁻¹
Substance: soluble mCD48 (purified monomeric mouse CD48 with a COOH-terminal His-tag) (from UniProt P18181 23-217) (domain or fragment)
